Source: US9228015B2, “Nogo receptor antagonists and methods of increasing neurite outgrowth” (Biogen Idec MA Inc., priority 2006, dated 2016)
Numbering of substitutions follows the chain as printed. “Also recorded” adds a separate entry of the source.

Legend:
human NgR1 = target: T1, human NgR1 (Homo sapiens, UniProt Q9BZR6); assay: Antibody binding specificity: human Nogo receptor-1
T1 sequence (Q9BZR6 27-447): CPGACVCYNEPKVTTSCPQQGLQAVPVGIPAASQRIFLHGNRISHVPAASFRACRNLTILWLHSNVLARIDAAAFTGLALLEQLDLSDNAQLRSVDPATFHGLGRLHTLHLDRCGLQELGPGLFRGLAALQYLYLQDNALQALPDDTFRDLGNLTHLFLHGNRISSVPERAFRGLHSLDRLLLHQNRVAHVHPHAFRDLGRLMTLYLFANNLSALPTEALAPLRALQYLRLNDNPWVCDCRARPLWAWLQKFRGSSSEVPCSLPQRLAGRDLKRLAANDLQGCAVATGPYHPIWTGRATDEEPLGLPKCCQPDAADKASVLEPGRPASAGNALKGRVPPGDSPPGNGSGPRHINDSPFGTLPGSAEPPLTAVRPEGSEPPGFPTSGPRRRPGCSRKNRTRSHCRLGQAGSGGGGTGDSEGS

rat NgR1 = target: T2, rat NgR1 (Rattus norvegicus, UniProt Q99M75); assay: Antibody binding specificity: rat Nogo receptor-1
T2 sequence (Q99M75 27-310): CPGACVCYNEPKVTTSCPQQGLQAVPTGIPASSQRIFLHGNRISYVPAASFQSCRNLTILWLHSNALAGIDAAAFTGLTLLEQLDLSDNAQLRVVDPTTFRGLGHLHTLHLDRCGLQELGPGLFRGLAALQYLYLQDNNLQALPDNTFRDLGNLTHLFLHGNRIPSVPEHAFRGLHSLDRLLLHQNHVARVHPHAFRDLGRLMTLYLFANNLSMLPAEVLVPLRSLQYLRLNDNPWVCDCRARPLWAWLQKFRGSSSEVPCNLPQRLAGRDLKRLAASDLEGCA

[1] = target: T3, fragments of rat NgR1 (sNgR310) (Rattus norvegicus, UniProt Q99M75, C43R/T53A); assay: Western blot of acid/CNBr fragments of sNgR310 probed with 7E11; format: binding
T3 construct: intact rat NgR1 (aa 27-aa 310); made in house
T3 sequence (Q99M75 27-122 C43R/T53A): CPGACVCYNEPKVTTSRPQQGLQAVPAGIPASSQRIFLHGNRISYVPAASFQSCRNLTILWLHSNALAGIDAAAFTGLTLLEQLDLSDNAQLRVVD
Procedure: (§1) A recombinant fragment of the rat NgR1 that contains all 8 LRR domains and the N- and C-terminal caps (sNgR310) was treated with either acid or cyanogen bromide (CNBr) and separated the fragments by gel electrophoresis. Untreated sNgR310 migrates with an apparent molecular weight of 42 kDa. Acid treatment of sNgR310 produced two major cleavage products of 15 kDa (aa 27-aa 122) and 30 kDa (aa 123-aa 310). CNBr treatment generated three fragments, a 33/35 kDa doublet (aa 27-aa 229), which may represent fragments with heterogeneous glycosylation, a 10 kDa product (aa 241-aa 310), and an 11-amino-acid fragment (as 230-aa 240), which is not retained on the gel. […] Both the 15 kDa acid fragment and the 35 kDa CNBr fragment contained the sequence […] (SEQ ID NO: 1), consistent with 7E11 binding to a single epitope on NgR1.

[2] = target: T4, fragments of rat NgR1 (sNgR310) (Rattus norvegicus, UniProt Q99M75, C43R/T53A); assay: as above; format: binding; remark: listed apart in the source
T4 construct: intact rat NgR1 (aa 27-aa 310); made in house
T4 sequence (Q99M75 27-229 C43R/T53A): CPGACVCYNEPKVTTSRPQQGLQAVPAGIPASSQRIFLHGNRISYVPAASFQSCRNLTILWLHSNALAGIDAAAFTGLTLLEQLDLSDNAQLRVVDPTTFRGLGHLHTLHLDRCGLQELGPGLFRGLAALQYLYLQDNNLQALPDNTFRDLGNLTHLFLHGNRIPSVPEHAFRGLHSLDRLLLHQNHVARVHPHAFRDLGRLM
Procedure: as §1

[3] = target: T5, fragments of rat NgR1 (sNgR310) (Rattus norvegicus, UniProt Q99M75, A303T/C287S/E284G); assay: as above; format: binding
T5 construct: intact rat NgR1 (aa 27-aa 310); made in house
T5 sequence (Q99M75 241-310 E284G/C287S/A303T): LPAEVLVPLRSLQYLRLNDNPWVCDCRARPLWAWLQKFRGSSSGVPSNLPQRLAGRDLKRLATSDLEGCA
Procedure: as §1

[4] = target: T6, fragments of rat NgR1 (sNgR310) (Rattus norvegicus, UniProt Q99M75, A303T/C287S/C43R/E284G/T53A); assay: as above; format: binding
T6 construct: intact rat NgR1 (aa 27-aa 310); made in house
T6 sequence (Q99M75 27-310 C43R/T53A/E284G/C287S/A303T): T2 sequence (Q99M75 27-310) with C17R, T27A, E258G, C261S, A277T
Procedure: as §1

[5] = target: T7, fragments of rat NgR1 (sNgR310) (Rattus norvegicus, UniProt Q99M75, A303T/C287S/E284G); assay: as above; format: binding; remark: listed apart in the source
T7 construct: intact rat NgR1 (aa 27-aa 310); made in house
T7 sequence (Q99M75 123-310 E284G/C287S/A303T): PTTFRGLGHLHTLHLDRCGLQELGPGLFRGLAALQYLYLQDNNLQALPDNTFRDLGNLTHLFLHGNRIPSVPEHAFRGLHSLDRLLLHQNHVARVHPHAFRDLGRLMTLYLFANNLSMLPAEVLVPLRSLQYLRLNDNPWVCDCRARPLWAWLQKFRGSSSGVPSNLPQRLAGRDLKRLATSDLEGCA
Procedure: as §1

[6] = target: T8, panel of Nogo receptor-1 polypeptides (sNogoR310-Fc, sNogoR344-Fc, p-617, p-618, p-4, p-5) (Rattus norvegicus, UniProt Q99M75); assay: Antibody specificity ELISA with a panel of Nogo receptor-1 polypeptides; format: binding
T8 construct: made in house
Source text: To determine the specificity of the monoclonal and Fab-phage antibodies produced in Examples 1 and 2, we performed an ELISA using a panel of Nogo receptor-1 polypeptides. The panel consisted of sNogoR310-Fc (a fusion protein comprising amino acids 26-310 of rat Nogo receptor-1 and a rat Fc fragment), sNogoR344-Fc (see supra), polypeptide p-617 (SEQ ID NO: 1), polypeptide p-618 (a 19-amino acid polypeptide from the LRR7 region of rat Nogo receptor-1; FIG. 2; SEQ ID NO: 11) and polypeptides p-4 and p-5 (polypeptides from the LRR5 and LRRCT regions of Nogo receptor-1, respectively). Ovalbumin and BSA were used as controls.

human NgR2 = target: T9, human NgR2 (Homo sapiens, UniProt Q86UN3); assay: Antibody binding specificity: human Nogo receptor-2
T9 sequence (Q86UN3 47-390): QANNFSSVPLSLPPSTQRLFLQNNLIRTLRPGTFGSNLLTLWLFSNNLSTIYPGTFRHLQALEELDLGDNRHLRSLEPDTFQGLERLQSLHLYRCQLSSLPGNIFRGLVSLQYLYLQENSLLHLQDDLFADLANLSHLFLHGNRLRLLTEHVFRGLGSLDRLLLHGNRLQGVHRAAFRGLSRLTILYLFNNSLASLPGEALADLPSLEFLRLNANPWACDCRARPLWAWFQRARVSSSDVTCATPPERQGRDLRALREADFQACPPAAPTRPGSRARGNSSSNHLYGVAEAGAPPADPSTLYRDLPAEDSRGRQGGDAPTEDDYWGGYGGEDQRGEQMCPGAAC

B1: 7E11: murine monoclonal anti-Nogo receptor-1 antibody, immunogen rat Nogo receptor-1 residues 110-125, IgG1 kappa, ATCC PTA-4587 (antibody, V domains shown)
VH: VQLQESGAELVMPGASVKMSCKASGYTFTDYWMHWVKQRPGQGLEWIGAIDPSDSYSSYNQNFKGKATLTVDGSSSTAYMQLSSLTSEDSAVYYCARRITEAGAWFAYWGQGTTVT
VL: MKLPVRLLVLMFWIPASSSDVVMTQTPLSLPVSLGDQASISCRSSQSLVHSNGNTYLHWYLQKPGQSPKLLIYKVSNRFSGVPDRFSGSGSGTDFTLKISRVDAEDLGVYFCSQSTHVPFTFGGGTKLEIKRADAAPTVSISHH
modifications: 7E11 heavy chain; 7E11 light chain
notes: murine monoclonal anti-Nogo receptor-1 antibody, immunogen rat Nogo receptor-1 residues 110-125, IgG1 kappa, ATCC PTA-4587
binding to human Nogo receptor-1 (human NgR1): bound; also recorded: binds well
binding to rat Nogo receptor-1 (rat NgR1): bound; also recorded: binds well
binding to the 15 kDa acid fragment (aa 27-aa 122) [1]: bound
binding to the 35 kDa CNBr fragment (aa 27-aa 229) [2]: bound
binding to the 10 kDa CNBr fragment (aa 241-aa 310) [3]: did not bind
binding to intact rat NgR1 (aa 27-aa 310) [4]: bound
binding to the 30 kDa acid fragment (aa 123-aa 310) [5]: did not bind
binding to polypeptide p-617 (SEQ ID NO: 1) [6]: specifically bound
binding to human Nogo receptor-2 (human NgR2): not
